Results: patent US20050106661A1 (RIKEN, published 2005)
Residue numbers refer to the chain shown, from its start. Names may count otherwise.

B1: Azami-Green, fluorescent protein derived from Galaxea fascicularis (other)
chain: MSVIKPEMKIKLCMRGTVNGHNFVIEGEGKGNPYEGTQILDLNVTEGAPLPFAYDILTTVFQYGNRAFTKYPADIQDYFKQTFPEGYHWERSMTYEDQGICTATSNISMRGDCFFYDIRFDGVNFPPNGPVMQKKTLKWEPSTEKMYVRDGVLKGDVNMALLLEGGGHYRCDFKTTYKAKKDVRLPDYHFVDHRIEILKHDKDYNKVKLYENAVARYSMLPSQAK
notes: Expressed in E. coli with a C-terminal His-tag and purified on Ni-agarose; also called wild-type Azami-Green; fluorescent protein of the present invention derived from coral; not shown: C-terminal His-tag from the pET28 vector (NcoI/XhoI cloning)
B2: mAG, monomeric mutant of Azami-Green (V123T, Y188A, F190K) (other)
chain: B1 chain with V123T, Y188A, F190K
notes: also called modified monomeric fluorescent protein

How the values were obtained:
[1] = target: the molecule itself; assay: formation of multimer (light scattering); self-association
Method: The fluorescent protein was equilibrated with 50 mM HEPES (pH 7.5) and 150 mM KCl.

[2] = target: the molecule itself; assay: molecular weight by light scattering (34 kDa)

Row | Protein | binding result [1] | binding result [2]
1 | B1 | binds | –
2 | B2 | – | no binding
